Test results taken from the supplement of paper PMC5998384.

Legend:
HeLa Kyoto [1] = assay: solubility in G1/S (NP-40 vs SDS abundance) (log2 ratio); higher = more soluble; settings: cell cycle stage: G1/S
HeLa Kyoto [2] = assay: solubility change mitosis vs G1/S (difference of NP-40 vs SDS log2 ratios) (log2 ratio difference); higher = more soluble in mitosis
HeLa Kyoto [3] = assay: melting temperature (median over replicates), in situ; higher = more thermally stable
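Wherever melting temperature (median over replicates), in situ is given: HeLa Kyoto cells synchronized by double thymidine or nocodazole block, proteins quantified by TMT10plex mass spectrometry, three independent biological replicates.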
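Wherever solubility change mitosis vs G1/S (difference of NP-40 vs SDS log2 ratios) is given: synchronized HeLa Kyoto cells (double thymidine block for G1/S, nocodazole release for mitosis), protein amounts in NP-40 versus SDS lysates quantified by mass spectrometry, three biological replicates.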
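Wherever solubility in G1/S (NP-40 vs SDS abundance) is given: HeLa Kyoto cells arrested at G1/S by double thymidine block, proteins quantified by TMT10plex mass spectrometry in mild NP-40 versus SDS extracts, three biological replicates.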

| Substance | solubility in G1/S (log2) (HeLa Kyoto [1]) | solubility change mitosis (log2) (HeLa Kyoto [2]) | melting temperature (HeLa Kyoto [3]; cell cycle stage: G1/S) | melting temperature (HeLa Kyoto [3]; cell cycle stage: mitosis) |
| --- | --- | --- | --- | --- |
| MGDDQEDDFPRRLSESMEDLSLDLGALQGSEYLQDLGLGAPSHSQPGETPDSRPTGEEPGRDSLFSSLAGSQDLSRRRSWERSRSCSESWRRLSLDASAVDEEPCLPRTLASLALNLPGGGLKTWTQGCLSGGGTPAESPGKECDSPKKRGRSRSVPVSFYEIRSPEISPGLEVPTPPVQGLEPPVLECMEKDHVEPDHVLIVQQVLQELRQYHGARQRACMSASPGGAHSNLTWFEFLSESEDGAGKNEKSDKSTSVKRRLSCLRSRVTRQKEKGKSPAHLKDKGQDARERRECVNGHQLLQGTFSGPSSCPLCGKPFLSSASLKEHPRGTLLSDGSPALSRNVGMTVSQKGGPQPTPSPAGPGTQLGPITGEMDEADSAFLKFKQTADDSLSLTSPNTESIFVEDPYTASLRSEIESDGHEFEAESWSLAVDAAYAKKQKREVVKRQDVLYELMQTEVHHVRTLKIMLKVYSRALQEELQFSSKAIGRLFPCADDLLETHSHFLARLKERRQESLEEGSDRNYVIQKIGDLLVQQFSGENGERMKEKYGVFCSGHNEAVSHYKLLLQQNKKFQNLIKKIGNFSIVRRLGVQECILLVTQRITKYPVLVERIIQNTEAGTEDYEDLTQALNLIKDIISQVDAKVSECEKGQRLREIAGKMDLKSSSKLKNGLTFRKEDMLQRQLHLEGMLCWKTTSGRLKDILAILLTDVLLLLQEKDQKYVFASVDSKPPVISLQKLIVREVANEEKAMFLISASLQGPEMYEIYTSSKEDRNAWMAHIQRAVESCPDEEEGPFSLPEEERKVVEARATRLRDFQERLSMKDQLIAQSLLEKQQIYLEMAEMGGLEDLPQPRGLFRGGDPSETLQGELILKSAMSEIEGIQSLICRQLGSANGQAEDGGSSTGPPRRAETFAGYDCTNSPTKNGSFKKKVSSTDPRPRDWRGPPNSPDLKLSDSDIPGSSEESPQVVEAPGTESDPRLPTVLESELVQRIQTLSQLLLNLQAVIAHQDSYVETQRAAIQEREKQFRLQSTRGNLLLEQERQRNFEKQREERAALEKLQSQLRHEQQRWERERQWQHQELERAGARLQEREGEARQLRERLEQERAELERQRQAYQHDLERLREAQRAVERERERLELLRRLKKQNTAPGALPPDTLAEAQPPSHPPSFNGEGLEGPRVSMLPSGVGPEYAERPEVARRDSAPTENRLAKSDVPIQLLSATNQFQRQAAVQQQIPTKLAASTKGGKDKGGKSRGSQRWESSASFDLKQQLLLNKLMGKDESTSRNRRSLSPILPGRHSPAPPPDPGFPAPSPPPADSPSEGFSLKAGGTALLPGPPAPSPLPATPLSAKEDASKEDVIFF [ARHGEF18] | 0.0647 | -0.0175 | 51.9 °C | 51.1 °C |
| MSAARESHPHGVKRSASPDDDLGSSNWEAADLGNEERKQKFLRLMGAGKKEHTGRLVIGDHKSTSHFRTGEEDKKINEELESQYQQSMDSKLSGRYRRHCGLGFSEVEDHDGEGDVAGDDDDDDDDSPDPESPDDSESDSESEKEESAEELQAAEHPDEVEDPKNKKDAKSNYKMMFVKSSGS [SMAP] | 0.338 | 0.413 | 55 °C |  |
| MEGGFGSDFGGSGSGKLDPGLIMEQVKVQIAVANAQELLQRMTDKCFRKCIGKPGGSLDNSEQKCIAMCMDRYMDAWNTVSRAYNSRLQRERANM [TIMM13] | -0.594 | 0.337 | 53.8 °C |  |
| ASAP2 | 0.122 | -0.37 | 50.7 °C | 51.4 °C |
| MAGIPGLLFLLFFLLCAVGQVSPYSAPWKPTWPAYRLPVVLPQSTLNLAKPDFGAEAKLEVSSSCGPQCHKGTPLPTYEEAKQYLSYETLYANGSRTETQVGIYILSSSGDGAQHRDSGSSGKSRRKRQIYGYDSRFSIFGKDFLLNYPFSTSVKLSTGCTGTLVAEKHVLTAAHCIHDGKTYVKGTQKLRVGFLKPKFKDGGRGANDSTSAMPEQMKFQWIRVKRTHVPKGWIKGNANDIGMDYDYALLELKKPHKRKFMKIGVSPPAKQLPGGRIHFSGYDNDRPGNLVYRFCDVKDETYDLLYQQCDAQPGASGSGVYVRMWKRQQQKWERKIIGIFSGHQWVDMNGSPQDFNVAVRITPLKYAQICYWIKGNYLDCREG [PRSS23] | -0.403 | 0.203 | 53.2 °C | 53.6 °C |
| MAGAGGGGCPAGGNDFQWCFSQVKGAIDEDVAEADIISTVEFNYSGDLLATGDKGGRVVIFQREQENKSRPHSRGEYNVYSTFQSHEPEFDYLKSLEIEEKINKIRWLPQQNAAHFLLSTNDKTIKLWKISERDKRAEGYNLKDEDGRLRDPFRITALRVPILKPMDLMVEASPRRIFANAHTYHINSISVNSDHETYLSADDLRINLWHLEITDRSFNIVDIKPANMEELTEVITAAEFHPHQCNVFVYSSSKGTIRLCDMRSSALCDRHSKFFEEPEDPSSRSFFSEIISSISDVKFSHSGRYMMTRDYLSVKVWDLNMESRPVETHQVHEYLRSKLCSLYENDCIFDKFECCWNGSDSAIMTGSYNNFFRMFDRDTRRDVTLEASRESSKPRASLKPRKVCTGGKRRKDEISVDSLDFNKKILHTAWHPVDNVIAVAATNNLYIFQDKIN [PPP2R2D] | -0.162 | -0.168 | 53.1 °C |  |
| MSVHYTLNLRVFWPLVTGLCTALVCLYHVLRGSGGARAEPADGVDGGFPLLKVAVLLLLSYVLLRCRHAVRQRFLPGSPRLEGHAAFSSRHFREPGLSILLESYYEHEVRLSPHVLGHSKAHVSRIVGELVRAGRARGSPGLIPGGALALAFRGDFIQVGSAYEQHKIRRPDSFDVLVPLRLPPLVALEPRSLGEEPALAPAFRGCFLCALKAPPSPSGASGGHWLRDCKPFADAFCVDVRGRRHLSATLVLRWFQSHLQRSLATVRYSLEGRCRVTLTPGGLEQPPTLHILPCRTDYGCCRLSMAVRLIPAVHLGDGVFLVAPPPPPLPSAPLLELPEGLRAEALWGVNTARQEQKLLSWLQERAAPGACYLKCLQLLKALRDLGARGLDSAAATQWGRILSSYVLKTVLLAVLLRKGAPGQGWDEEHLGRCLEELVQFLRDCLLRRHTLFHCVLGPGGAAAEVGPLPKALREAAPVDLLAAFDGHARELAAARLLSTWQRLPQLLRAYGGPRYLARCPPPRSQRTQGFLEGEP [ITPRIPL2] | -0.164 | 0.00884 | 53.8 °C | 55.4 °C |
| MNNLNDPPNWNIRPNSRADGGDGSRWNYALLVPMLGLAAFRWIWSRESQKEVEKEREAYRRRTAAFQQDLEAKYHAMISENRRAVAQLSLELEKEQNRTASYREALISQGRKLVEEKKLLEQERAQVMQEKRQVQPLRSAYLSCLQREENWQRRARLLLKEFEAVLTERQNIYCSLFLPRSKRLEIEKSLLVRASVDPVAADLEMAAGLTDIFQHDTYCGDVWNTNKRQNGRLMWLYLKYWELVVELKKFKRVEEAILEK [CCDC127] | 0.0789 | 0.115 | 54 °C | 52.5 °C |
| MRRAWILLTLGLVACVSAESRAELTSDKDMYLDNSSIEEASGVYPIDDDDYASASGSGADEDVESPELTTSRPLPKILLTSAAPKVETTTLNIQNKIPAQTKSPEETDKEKVHLSDSERKMDPAEEDTNVYTEKHSDSLFKRTEVLAAVIAGGVIGFLFAIFLILLLVYRMRKKDEGSYDLGERKPSSAAYQKAPTKEFYA [SDC2] | -0.422 | -0.902 | 55.6 °C | 59.2 °C |
| MHRAPSPTAEQPPGGGDSARRTLQPRLKPSARAMALPRTLGELQLYRVLQRANLLSYYETFIQQGGDDVQQLCEAGEEEFLEIMALVGMATKPLHVRRLQKALREWATNPGLFSQPVPAVPVSSIPLFKISETAGTRKGSMSNGHGSPGEKAGSARSFSPKSPLELGEKLSPLPGGPGAGDPRIWPGRSTPESDVGAGGEEEAGSPPFSPPAGGGVPEGTGAGGLAAGGTGGGPDRLEPEMVRMVVESVERIFRSFPRGDAGEVTSLLKLNKKLARSVGHIFEMDDNDSQKEEEIRKYSIIYGRFDSKRREGKQLSLHELTINEAAAQFCMRDNTLLLRRVELFSLSRQVARESTYLSSLKGSRLHPEELGGPPLKKLKQEVGEQSHPEIQQPPPGPESYVPPYRPSLEEDSASLSGESLDGHLQAVGSCPRLTPPPADLPLALPAHGLWSRHILQQTLMDEGLRLARLVSHDRVGRLSPCVPAKPPLAEFEEGLLDRCPAPGPHPALVEGRRSSVKVEAEASRQ [NAB2] | 0.298 | -0.11 |  | 48.9 °C |
| MDEERALYIVRAGEAGAIERVLRDYSDKHRATFKFESTDEDKRKKLCEGIFKVLIKDIPTTCQVSCLEVLRILSRDKKVLVPVTTKENMQILLRLAKLNELDDSLEKVSEFPVIVESLKCLCNIVFNSQMAQQLSLELNLAAKLCNLLRKCKDRKFINDIKCFDLRLLFLLSLLHTDIRSQLRYELQGLPLLTQILESAFSIKWTDEYESAIDHNGPPLSPQETDCAIEALKALFNVTVDSWKVHKESDSHQFRVMAAVLRHCLLIVGPTEDKTEELHSNAVNLLSNVPVSCLDVLICPLTHEETAQEATTLDELPSNKTAEKETVLKNNTMVYNGMNMEAIHVLLNFMEKRIDKGSSYREGLTPVLSLLTECSRAHRNIRKFLKDQVLPPLRDVTNRPEVGSTVRNKLVRLMTHVDLGVKQIAAEFLFVLCKERVDSLLKYTGYGNAAGLLAARGLLAGGRGDNWYSEDEDTDTEEYKNAKPKEELLKPMGLKPDGTITPLEEALNQYSVIEETSSDTD [RIC8B] | -0.00976 | -0.194 | 49.4 °C | 49.8 °C |
| MAQGWAGFSEEELRRLKQTKDPFEPQRRLPAKKSRQQLQREKALVEQSQKLGLQDGSTSLLPEQLLSAPKQRVNVQKPPFSSPTLPSHFTLTSPVGDGQPQGIESQPKELGLENSHDGHNNVEILPPKPDCKLEKKKVELQEKSRWEVLQQEQRLMEEKNKRKKALLAKAIAERSKRTQAETMKLKRIQKELQALDDMVSADIGILRNRIDQASLDYSYARKRFDRAEAEYIAAKLDIQRKTEIKEQLTEHLCTIIQQNELRKAKKLEELMQQLDVEADEETLELEVEVERLLHEQEVESRRPVVRLERPFQPAEESVTLEFAKENRKCQEQAVSPKVDDQCGNSSSIPFLSPNCPNQEGNDISAALAT [GORAB] | 0.431 | 0.118 |  | 50.9 °C |
| MAAAAPGNGRASAPRLLLLFLVPLLWAPAAVRAGPDEDLSHRNKEPPAPAQQLQPQPVAVQGPEPARVEKIFTPAAPVHTNKEDPATQTNLGFIHAFVAAISVIIVSELGDKTFFIAAIMAMRYNRLTVLAGAMLALGLMTCLSVLFGYATTVIPRVYTYYVSTVLFAIFGIRMLREGLKMSPDEGQEELEEVQAELKKKDEEFQRTKLLNGPGDVETGTSITVPQKKWLHFISPIFVQALTLTFLAEWGDRSQLTTIVLAAREDPYGVAVGGTVGHCLCTGLAVIGGRMIAQKISVRTVTIIGGIVFLAFAFSALFISPDSGF [TMEM165] | 0.0487 | -0.178 | 60.8 °C | 56.9 °C |
| KIF13B | -0.0369 | -0.193 | 50.2 °C | 50.3 °C |
